One experiment addresses HLA-B*40:02. The experiment can be described thus: IEDB peptide-MHC binding, cellular MHC/competitive/fluorescence; ≥ and ≤ were set here for values at or beyond the usual limits of such assays. The note with it: source organism: Homo sapiens.
The target in experiment [1] is HLA-B*07:02. The experiment in a line: IEDB peptide-MHC binding, purified MHC/competitive/radioactivity; ≥ and ≤ were set here for values at or beyond the usual limits of such assays. The following applies: source organism: dengue virus type 1.
In experiment [2] the target is HLA-B*35:01. The experiment in a line: IEDB peptide-MHC binding, purified MHC/competitive/radioactivity; filed as Kd, often an IC50 or EC50 that approximates it; ≥ and ≤ were set here for values at or beyond the usual limits of such assays. The note with it: source organism: Dengue virus 1 Brazil/97-11/1997.
A further experiment deals with HLA-A*02:01. The experiment in a line: IEDB peptide-MHC binding, purified MHC/direct/fluorescence; filed as Kd, often an IC50 or EC50 that approximates it; ≥ and ≤ were set here for values at or beyond the usual limits of such assays.
Another experiment addresses HLA-A*24:03. The experiment is described as above. The following applies: source organism: Zaire ebolavirus.
Another experiment has as its target HLA-A*03:19. The experiment can be described thus: IEDB peptide-MHC binding, purified MHC/competitive/fluorescence; filed as Kd, often an IC50 or EC50 that approximates it; ≥ and ≤ were set here for values at or beyond the usual limits of such assays. The note with it: source organism: Zaire ebolavirus.
Experiment [3] has as its target HLA-A*26:01. The description is as above.
A further experiment deals with HLA-B*15:01. Described as above.
In experiment [4] the target is HLA-B*15:17. The experiment is described as above.
Another experiment addresses HLA-B*15:42. Described as above. The following applies: source organism: Zaire ebolavirus.
For the next experiment, the target named is HLA-B*18:01. The description is as above.
A further experiment deals with HLA-B*27:03. The experiment is described as above. The note with it: source organism: Zaire ebolavirus.
Experiment [5] concerns the target HLA-B*39:01. Described as above. The note with it: source organism: Zaire ebolavirus.
The target in another experiment is HLA-B*45:06. The description is as above. The following applies: source organism: Zaire ebolavirus.
The target in experiment [6] is HLA-B*46:01. The experiment is described as above. The note with it: source organism: Zaire ebolavirus.
Experiment [7] addresses HLA-B*57:01. Described as above. The note with it: source organism: Zaire ebolavirus.
Another experiment concerns the target HLA-B*83:01. Described as above. The note with it: source organism: Zaire ebolavirus.
A further experiment addresses HLA-C*06:02. The experiment is described as above. The note with it: source organism: Zaire ebolavirus.
Another experiment has as its target HLA-A*01:01. The experiment in a line: IEDB peptide-MHC binding, purified MHC/direct/fluorescence; filed as Kd, often an IC50 or EC50 that approximates it; ≥ and ≤ were set here for values at or beyond the usual limits of such assays.
In experiment [8] the target is HLA-A*26:01. The description is as above. The following applies: source organism: Variola virus.
A further experiment deals with HLA-A*26:02. The description is as above. The note with it: source organism: Variola virus.
Another experiment addresses HLA-A*68:02. Described as above. The note with it: source organism: Cowpox virus.
For the next experiment, the target named is HLA-A*69:01. The description is as above. The note with it: source organism: Cowpox virus.
The target of another experiment is HLA-B*08:01. The experiment is described as above. The following applies: source organism: Variola virus.
Another experiment deals with HLA-B*08:02. Described as above.
The target in experiment [9] is HLA-B*15:09. The description is as above. The note with it: source organism: Variola virus.
Experiment [10] has as its target HLA-B*39:01. The experiment is described as above.
For another experiment, the target named is HLA-B*40:01. Described as above.
The target of experiment [11] is HLA-B*46:01. The experiment is described as above.
Experiment [12] deals with HLA-B*57:01. Described as above.
A further experiment addresses HLA-B*58:01. The experiment is described as above.
Experiment [13] concerns the target HLA-B*07:02. The experiment can be described thus: IEDB peptide-MHC binding, purified MHC/competitive/fluorescence; filed as Kd, often an IC50 or EC50 that approximates it; ≥ and ≤ were set here for values at or beyond the usual limits of such assays. The note with it: source organism: Vaccinia virus Copenhagen.
Experiment [14] deals with HLA-B*27:05. The experiment is described as above. The following applies: source organism: Vaccinia virus Copenhagen.
Experiment [15] deals with HLA-B*35:01. The description is as above. The note with it: source organism: Vaccinia virus Copenhagen.
The target of a further experiment is HLA-A*03:01. The experiment in a line: IEDB peptide-MHC binding, purified MHC/direct/fluorescence; filed as Kd, often an IC50 or EC50 that approximates it; ≥ and ≤ were set here for values at or beyond the usual limits of such assays. The following applies: source organism: Bacillus anthracis.
The next experiment deals with HLA-A*11:01. The experiment is described as above. The following applies: source organism: Bacillus anthracis.
In another experiment the target is HLA-A*31:01. The experiment is described as above. The note with it: source organism: Bacillus anthracis.
Experiment [16] deals with HLA-B*15:17. The experiment is described as above. The note with it: source organism: Bacillus anthracis.
In experiment [17] the target is HLA-B*27:05. Described as above. The note with it: source organism: Bacillus anthracis.
Another experiment deals with HLA-B*48:01. Described as above. The following applies: source organism: Bacillus anthracis.
In another experiment the target is HLA-C*05:01. Described as above. The following applies: source organism: Bacillus anthracis str. A0389.
In the next experiment the target is HLA-A*02:06. The experiment can be described thus: IEDB peptide-MHC binding, purified MHC/competitive/fluorescence; filed as Kd, often an IC50 or EC50 that approximates it; ≥ and ≤ were set here for values at or beyond the usual limits of such assays. The note with it: source organism: Bacillus anthracis str. A0389.
Experiment [18] deals with HLA-B*15:09. The experiment is described as above. The note with it: source organism: Bacillus anthracis str. A0389.
Setting [19] is: source organism: Zaire ebolavirus.
[20] abbreviates: source organism: Vaccinia virus Copenhagen.
Setting [21] is: source organism: Bacillus anthracis.
Where [22] appears, read: source organism: Bacillus anthracis str. A0193.
Where [23] appears, read: source organism: Bacillus anthracis str. A0389.

Experimental findings from the Immune Epitope Database (IEDB) are described below.

One may read the IC50 as the concentration that gives 50% inhibition. In general, Kd refers to the constant that tells how readily two partners part at equilibrium.

REGSFRVTT showed an IC50 in the experiment with HLA-B*40:02 of 1900 nM.

With HPASAWTLYA, the IC50 in the experiment with HLA-B*07:02 [1] came to 6.15 nM. Moreover, in the experiment with HLA-B*35:01 [2], the Kd amounted to 572 nM.

VLYHRYNLV: the dissociation constant (Kd) with HLA-A*02:01 (source organism: Sudan ebolavirus - Maleo (1979)) is 18.1 nM; with HLA-A*24:03, not below 20 µM; with HLA-A*03:19, 4.4 nM; in the experiment with HLA-A*26:01 [3] (setting [19]) it was not below 20 µM; in the experiment with HLA-B*15:01 (setting [19]) it was not below 20 µM; with HLA-B*15:17 [4] (setting [19]), not below 20 µM. For the same sequence, the Kd is not below 5 µM with HLA-B*15:42; not below 20000 nM in the experiment with HLA-B*18:01 (setting [19]); not below 20 µM with HLA-B*27:03; not below 20 µM with HLA-B*39:01 [5]; not below 5 µM with HLA-B*45:06; not below 20 µM with HLA-B*46:01 [6]. For the same sequence, the Kd with HLA-B*57:01 [7] is not below 20 µM; with HLA-B*83:01, not below 5 µM; in the experiment with HLA-C*06:02, 804 nM.

YHRFGLYRL: the Kd with HLA-A*01:01 (source organism: Cowpox virus) is not below 20000 nM; with HLA-A*02:01 (source organism: Cowpox virus), not below 20000 nM; with HLA-A*26:01 [8], not below 20 µM; with HLA-A*26:02 it was not below 20 µM; with HLA-A*68:02 it was not below 20 µM; in the experiment with HLA-A*69:01 it was not below 20 µM. Besides, the Kd was not below 20 µM with HLA-B*08:01; not below 20 µM with HLA-B*08:02 (source organism: Variola virus); 2430 nM with HLA-B*15:09 [9]; 5.05 µM in the experiment with HLA-B*39:01 [10] (source organism: Cowpox virus); not below 20 µM with HLA-B*40:01 (source organism: Cowpox virus); not below 20 µM in the experiment with HLA-B*46:01 [11] (source organism: Cowpox virus). Besides, the Kd with HLA-B*57:01 [12] (source organism: Cowpox virus) was not below 20 µM; with HLA-B*58:01 (source organism: Cowpox virus), not below 20000 nM; with HLA-B*07:02 [13], not below 20 µM; in the experiment with HLA-B*15:01 (setting [20]) it was not below 20 µM; with HLA-B*15:17 [4] (setting [20]) it was not below 20 µM; with HLA-B*18:01 (setting [20]), 2660 nM. The Kd in the experiment with HLA-B*27:05 [14] is not below 20 µM; with HLA-B*35:01 [15] it was 2700 nM.

Turning to FTDNNELEF, the Kd was 2 nM with HLA-A*01:01 (setting [21]); not below 20 µM in the experiment with HLA-A*03:01; not below 20 µM with HLA-A*11:01; not below 20 µM with HLA-A*31:01; not below 20 µM in the experiment with HLA-B*08:02 (setting [22]); 3 nM with HLA-B*15:17 [16]. For the same sequence, the Kd in the experiment with HLA-B*27:05 [17], with HLA-B*39:01 [10] (setting [22]), in the experiment with HLA-B*40:01 (setting [21]), in the experiment with HLA-B*46:01 [11] (setting [21]), with HLA-B*48:01 and with HLA-B*57:01 [12] (setting [21]) was not below 20 µM in each case. The Kd in the experiment with HLA-B*58:01 (setting [21]) was 212 nM; with HLA-C*05:01, not above 1 nM; in the experiment with HLA-A*02:06, 0.2 nM; with HLA-A*26:01 [3] (setting [23]), not below 20 µM; in the experiment with HLA-B*15:01 (setting [23]), not below 20 µM; with HLA-B*15:09 [18], not below 20 µM.
